Test results: patent publication US20230192903A1 (published 2023)
Where a chain is given by its changes, count along the chain named. Names may count otherwise.

B1: IMAB362 monoclonal antibody (antibody, human IgG1, kappa, V domains shown)
VH: QVQLQQPGAELVRPGASVKLSCKASGYTFTSYWINWVKQRPGQGLEWIGNIYPSDSYTNYNQKFKDKATLTVDKSSSTAYMQLSSPTSEDSAVYYCTRSWRGNSFDYWGQGTTLTVSS
VL: DIVMTQSPSSLTVTAGEKVTMSCKSSQSLLNSGNQKNYLTWYQQKPGQPPKLLIYWASTRESGVPDRFTGSGSGTDFTLTISSVQAEDLAVYYCQNDYSYPFTFGSGTKLEIKR
notes: prepared by Wuhan YZY Biopharma; also called Anti-CLDN18.2 monoclonal antibody IMAB362
B2: bispecific antibody Y6 (bispecific antibody, human IgG1, kappa)
light: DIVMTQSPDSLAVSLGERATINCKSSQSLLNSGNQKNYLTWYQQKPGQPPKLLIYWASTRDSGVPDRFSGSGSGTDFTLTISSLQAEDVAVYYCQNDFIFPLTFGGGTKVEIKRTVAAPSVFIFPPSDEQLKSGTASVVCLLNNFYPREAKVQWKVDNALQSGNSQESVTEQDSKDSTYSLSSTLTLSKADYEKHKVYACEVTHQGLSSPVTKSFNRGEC
heavy: QVQLQESGPGLVKPSETLSLTCTVSGFSLTRYGVSWIRQPPGKGLEWIGVIWGEGNTNYNPSLKSRVTISKDSSKSQVSLKLSSVTAADTAVYYCARVNFGNALDYWGQGTLVTVSSASTKGPSVFPLAPSSKSTSGGTAALGCLVKDYFPEPVTVSWNSGALTSGVHTFPAVLQSSGLYSLSSVVTVPSSSLGTQTYICNVNHKPSNTKVDKKVEPKSCDKTHTCPPCPAPPVAGPSVFLFPPKPKDTLMISRTPEVTCVVVDVSHEAPEVQFNWYVDGVEVHNAKTKPREEQFNSTFRVVSVLTVVHQDWLNGKEYKCKVSNKGLPAPIEKTISKTKGQPREPQVYTLPPCRDELTKNQVSLWCLVKGFYPSDIAVEWESNGQPENNYKTTPPVLDSDGSFFLYSKLTVDKSRWQQGNVFSCSVMHEALHNHYTQKSLSLSPGK
chain: QVQLVESGGGVVQPGRSLRLSCAASGFTFSTYAMNWVRQAPGKGLEWVARIRSKYNNYATYYADSVKDRFTISRDDSKNTLYLQMNSLRAEDTAVYYCARHGNFGNSYVSWFAYWGQGTLVTVSSGGGGSGGGGSGGGGSQTVVTQEPSLTVSPGGTVTLTCRSSTGAVTTSNYANWVQQKPGQAPRGLIGGTNKRAPGVPARFSGSLLGGKAALTLSGVQPEDEAEYYCALWYSNLWVFGGGTKVEIKGRGRGSDKTHTCPPCPAPPVAGPSVFLFPPKPKDTLMISRTPEVTCVVVDVSHEAPEVQFNWYVDGVEVHNAKTKPREEQFNSTFRVVSVLTVVHQDWLNGKEYKCKVSNKGLPAPIEKTISKTKGQPREPQVCTLPPSRDELTKNQVSLSCAVKGFYPSDIAVEWESNGQPENNYKTTPPVLDSDGSFFLVSKLTVDKSRWQQGNVFSCSVMHEALHNHYTQKSLSLSPGK
notes: YBODY structure: anti-CLDN18.2 Fab arm (2C6.9) and second monomer anti-CD3 scFv (2a5)-Fc
B3: bispecific antibody Y1 (bispecific antibody, human IgG1, kappa)
light: DIVMTQSPSSLTVTAGEKVTMSCKSSQSLLNSGNQKNYLTWYQQKPGQPPKLLIYWASTRESGVPDRFTGSGSGTDFTLTISSVQAEDLAVYYCQNDYSYPFTFGSGTKLEIKRTVAAPSVFIFPPSDEQLKSGTASVVCLLNNFYPREAKVQWKVDNALQSGNSQESVTEQDSKDSTYSLSSTLTLSKADYEKHKVYACEVTHQGLSSPVTKSFNRGEC
heavy: QVQLQQPGAELVRPGASVKLSCKASGYTFTSYWINWVKQRPGQGLEWIGNIYPSDSYTNYNQKFKDKATLTVDKSSSTAYMQLSSPTSEDSAVYYCTRSWRGNSFDYWGQGTTLTVSSASTKGPSVFPLAPSSKSTSGGTAALGCLVKDYFPEPVTVSWNSGALTSGVHTFPAVLQSSGLYSLSSVVTVPSSSLGTQTYICNVNHKPSNTKVDKKVEPKSCDKTHTCPPCPAPPVAGPSVFLFPPKPKDTLMISRTPEVTCVVVDVSHEAPEVQFNWYVDGVEVHNAKTKPREEQFNSTFRVVSVLTVVHQDWLNGKEYKCKVSNKGLPAPIEKTISKTKGQPREPQVYTLPPCRDELTKNQVSLWCLVKGFYPSDIAVEWESNGQPENNYKTTPPVLDSDGSFFLYSKLTVDKSRWQQGNVFSCSVMHEALHNHYTQKSLSLSPGK
chain: B2 chain with F112A, V178F
notes: YBODY structure: anti-CLDN18.2 Fab arm (175D10) and second monomer anti-CD3 scFv (2a5ga)-Fc
B4: bispecific antibody Y8 (bispecific antibody, human IgG1, kappa)
light: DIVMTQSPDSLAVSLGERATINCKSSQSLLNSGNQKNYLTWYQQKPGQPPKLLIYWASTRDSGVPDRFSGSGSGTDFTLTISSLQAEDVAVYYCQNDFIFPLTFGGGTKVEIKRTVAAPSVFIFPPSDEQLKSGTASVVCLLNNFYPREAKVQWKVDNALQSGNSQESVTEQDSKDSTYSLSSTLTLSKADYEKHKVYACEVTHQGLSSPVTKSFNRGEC
heavy: B2 heavy
chain: not shown
notes: YBODY structure: anti-CLDN18.2 Fab arm (2C6.9) and second monomer anti-CD3 scFv (L2K)-Fc
B5: bispecific antibody CS5 (bispecific antibody, human IgG1, kappa)
light: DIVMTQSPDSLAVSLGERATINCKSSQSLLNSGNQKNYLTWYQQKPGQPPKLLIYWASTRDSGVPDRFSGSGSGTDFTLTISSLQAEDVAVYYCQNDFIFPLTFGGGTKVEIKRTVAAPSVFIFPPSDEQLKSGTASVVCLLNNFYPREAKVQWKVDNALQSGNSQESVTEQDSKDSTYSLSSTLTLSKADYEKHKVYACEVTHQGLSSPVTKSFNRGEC
heavy 1: B2 heavy
heavy 2: QVQLQESGPGLVKPSETLSLTCTVSGFSLTRYGVSWIRQPPGKGLEWIGVIWGEGNTNYNPSLKSRVTISKDSSKSQVSLKLSSVTAADTAVYYCARVNFGNALDYWGQGTLVTVSSASTKGPSVFPLAPSSKSTSGGTAALGCLVKDYFPEPVTVSWNSGALTSGVHTFPAVLQSSGLYSLSSVVTVPSSSLGTQTYICNVNHKPSNTKVDKKVEPKSCDKTHTAPAPAPAPAPAPAPAPQVQLVESGGGVVQPGRSLRLSCAASGFTFSTYAMNWVRQAPGKGLEWVARIRSKYNNYATYYADSVKDRFTISRDDSKNTLYLQMNSLRAEDTAVYYCARHGNFGNSYVSWAAYWGQGTLVTVSSGGGGSGGGGSGGGGSQTVVTQEPSLTVSPGGTVTLTCRSSTGAVTTSNYANWFQQKPGQAPRGLIGGTNKRAPGVPARFSGSLLGGKAALTLSGVQPEDEAEYYCALWYSNLWVFGGGTKVEIKGGGGSDKTHTCPPCPAPPVAGPSVFLFPPKPKDTLMISRTPEVTCVVVDVSHEAPEVQFNWYVDGVEVHNAKTKPREEQFNSTFRVVSVLTVVHQDWLNGKEYKCKVSNKGLPAPIEKTISKTKGQPREPQVCTLPPSRDELTKNQVSLSCAVKGFYPSDIAVEWESNGQPENNYKTTPPVLDSDGSFFLVSKLTVDKSRWQQGNVFSCSVMHEALHNHYTQKSLSLSPGK
notes: CSBODY structure: two 2C6.9 Fab arms; second heavy chain (first heavy entry) and first heavy chain with anti-CD3 scFv (2a5ga) between CH1 and Fc2
B6: Anti-CLDN18.2 monoclonal antibody 2C6.9 (antibody, human IgG1, kappa, V domains shown)
VH: QVQLQESGPGLVKPSETLSLTCTVSGFSLTRYGVSWIRQPPGKGLEWIGVIWGEGNTNYNPSLKSRVTISKDSSKSQVSLKLSSVTAADTAVYYCARVNFGNALDYWGQGTLVTVSS
VL: DIVMTQSPDSLAVSLGERATINCKSSQSLLNSGNQKNYLTWYQQKPGQPPKLLIYWASTRDSGVPDRFSGSGSGTDFTLTISSLQAEDVAVYYCQNDFIFPLTFGGGTKVEIKR
notes: prepared by Wuhan YZY Biopharma
B7: anti-CLDN18.2 monoclonal antibody 1E9.2 (antibody, human IgG1, kappa, V domains shown)
VH: EVQLVESGGGLVKPGGSLRLSCAASGFSFSNSAMSWVRQAPGKGLEWVSTISSGDSYTYYADSVKGRFTISRDNAKNSLYLQMNSLRAEDTAVYYCARQGYGNALDYWGQGTLVTVSS
VL: B6 VL with A57S, D61E, V89F, F98Y, I99Y, F100Y
notes: as for B6
B8: bispecific antibody CS2 (bispecific antibody, human IgG1, kappa)
light: B3 light
heavy 1: B3 heavy
heavy 2: QVQLQQPGAELVRPGASVKLSCKASGYTFTSYWINWVKQRPGQGLEWIGNIYPSDSYTNYNQKFKDKATLTVDKSSSTAYMQLSSPTSEDSAVYYCTRSWRGNSFDYWGQGTTLTVSSASTKGPSVFPLAPSSKSTSGGTAALGCLVKDYFPEPVTVSWNSGALTSGVHTFPAVLQSSGLYSLSSVVTVPSSSLGTQTYICNVNHKPSNTKVDKKVEPKSCDKTHTAPAPAPAPAPAPAPAPQVQLVESGGGVVQPGRSLRLSCAASGFTFSTYAMNWVRQAPGKGLEWVARIRSKYNNYATYYADSVKDRFTISRDDSKNTLYLQMNSLRAEDTAVYYCARHGNFGNSYVSWFAYWGQGTLVTVSSGGGGSGGGGSGGGGSQTVVTQEPSLTVSPGGTVTLTCRSSTGAVTTSNYANWVQQKPGQAPRGLIGGTNKRAPGVPARFSGSLLGGKAALTLSGVQPEDEAEYYCALWYSNLWVFGGGTKVEIKGGGGSDKTHTCPPCPAPPVAGPSVFLFPPKPKDTLMISRTPEVTCVVVDVSHEAPEVQFNWYVDGVEVHNAKTKPREEQFNSTFRVVSVLTVVHQDWLNGKEYKCKVSNKGLPAPIEKTISKTKGQPREPQVCTLPPSRDELTKNQVSLSCAVKGFYPSDIAVEWESNGQPENNYKTTPPVLDSDGSFFLVSKLTVDKSRWQQGNVFSCSVMHEALHNHYTQKSLSLSPGK
notes: CSBODY structure: two 175D10 Fab arms; second heavy chain (first heavy entry) and first heavy chain with anti-CD3 scFv (2a5) between CH1 and Fc2
B9: bispecific antibody CS9 (bispecific antibody, human IgG1, kappa)
light: B3 light
heavy 1: B3 heavy
heavy 2: not shown
notes: CSBODY structure: two 175D10 Fab arms; second heavy chain (first heavy entry) and first heavy chain with anti-CD3 scFv (L2K) between CH1 and Fc2

Columns and labels:
[1] = biological target: T1, Human CLDN18.2 (human); assay: flow cytometry, NUGC4-hCLDN18.2 cells
T1 construct: the cell line is named under assay; also called hCLDN18.2; human CLDN18.2 antigen
Experimental: (§1) NUGC4 and NUGC4-hCLDN18.2 cells were cultured, digested with pancreatin and centrifuged to collect cells. The cells were collected and resuspended in buffer (PBS+1% FBS) at 1×10⁴ cells/well in a 96-well plate at 100 μL per well. Then the mixture was centrifuged at 350×g for 5 min, and the supernatant was removed.

[2] = biological target: T1, Human CLDN18.2; assay: cell-based or functional assay
[3] = biological target: T2, human CD3 antigen (human, UniProt P07766 23-126); assay: SPR (Biacore T200), human CD3 antigen amine-coupled on CM5 chip, 1:1 fit
T2 construct: also called Human CD3ϵ
Experimental: After the detection was completed, data fitting was carried out on the result pattern by adopting Biacore T200 Evaluation Software in a 1:1 binding fitting mode to obtain an equilibrium dissociation constant (KD).

[4] = biological target: T1, Human CLDN18.2; assay: cell-based or functional assay; remark: listed apart in the source
[5] = biological target: T1, Human CLDN18.2; assay: flow cytometry, NUGC4 cells (endogenous CLDN18.2)
Experimental: as §1

[6] = biological target: T1, Human CLDN18.2; assay: flow cytometry, NUGC4-hCLDN18.2 cells; remark: listed apart in the source
Experimental: as §1

[7] = biological target: T3, Human CLDN18.1 (human, UniProt P56856 1-261); assay: flow cytometry, 293T-hCLDN18.1 cells
T3 construct: also called hCLDN18.1

[8] = biological target: T1, Human CLDN18.2; assay: cell-based or functional assay; remark: listed apart in the source

Row | Binder | EC50 [1] [nM] | EC50 (pM), in vitro killing by hPBMC, NUGC4-hCLDN18.2 cells [2] [pM] | EC50 (pM), in vitro killing by hPBMC, NUGC4 cells [2] [pM] | Kd [3] [nM] | Induction of expression of CD25 EC50 (pM), NUGC4 [4] [pM] | Induction of expression of CD25 EC50 (pM), NUGC4-hCLDN18.2 [4] [pM] | Induction of expression of CD69 EC50 (pM), NUGC4 [4] [pM] | Induction of expression of CD69 EC50 (pM), NUGC4-hCLDN18.2 [4] [pM] | EC50 [5] [nM] | EC50 [6] [nM] | binding result [7] | EC50 value for killing effect on NUGC4-hCLDN18.2 cells [8] [nM]
1 | B1 | 10.8 | – | – | – | – | – | – | – | – | – | – | –
2 | B2 | – | 1.07 | 7.99 | 5.77 | 17.2 | 2.32 | 4.87 | 0.592 | 184 | 45.9 | – | –
3 | B3 | – | – | – | 1980 | – | – | – | – | – | – | – | –
4 | B4 | – | 4.09 | 57.8 | – | 182 | 16.5 | 33.3 | 2.98 | 75.1 | 46.9 | – | –
5 | B5 | – | 132 | 433 | – | 481 | 142 | 141 | 70.5 | 25.7 | 18.2 | – | –
6 | B6 | – | – | – | – | – | – | – | – | – | – | no binding (tested: 1000 nM) | –
7 | B7 | – | – | – | – | – | – | – | – | – | – | no binding (tested: 1000 nM) | –
8 | B8 | – | 2.17 | – | 3.1 | 216 | 1.21 | 29.5 | 0.389 | – | 36 | – | –
9 | B9 | < 50 | – | – | – | – | – | – | – | – | – | no binding | < 0.01
